According to article PMC10246534:

Target: casirivimab (human)
Assay: SPR; Biacore T200; […]; HBS-EP, 25 °C; 1:1 binding model

Chain of casirivimab (human) (heavy, as listed by the source, chain 1 of 2): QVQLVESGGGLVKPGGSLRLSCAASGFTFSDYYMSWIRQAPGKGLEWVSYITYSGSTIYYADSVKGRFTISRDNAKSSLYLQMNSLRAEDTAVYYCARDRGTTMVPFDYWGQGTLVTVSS
Chain of casirivimab (human) (light, as listed by the source, chain 2 of 2): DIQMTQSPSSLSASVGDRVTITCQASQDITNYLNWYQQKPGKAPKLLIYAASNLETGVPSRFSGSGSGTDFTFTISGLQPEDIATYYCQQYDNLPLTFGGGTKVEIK

Row | Substance | Kd
1 | Delta RBD + G446V (from UniProt P0DTC2) (domain or fragment) | 0.64 nM
2 | Delta RBD + E406D (from UniProt P0DTC2) (domain or fragment) | 7.1 nM
3 | Delta RBD + G446S (from UniProt P0DTC2) (domain or fragment) | 0.56 nM
4 | Delta RBD + G446V + L455F (from UniProt P0DTC2) (domain or fragment) | 69 nM
5 | Delta RBD + Y453F (from UniProt P0DTC2) (domain or fragment) | 67 nM

Target: imdevimab (human)
Assay: as above

Chain of imdevimab (human) (heavy, as listed by the source, chain 1 of 2): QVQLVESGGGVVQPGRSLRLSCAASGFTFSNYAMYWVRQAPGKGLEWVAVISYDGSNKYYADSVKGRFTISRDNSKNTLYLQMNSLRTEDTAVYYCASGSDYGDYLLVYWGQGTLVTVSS
Chain of imdevimab (human) (light, as listed by the source, chain 2 of 2): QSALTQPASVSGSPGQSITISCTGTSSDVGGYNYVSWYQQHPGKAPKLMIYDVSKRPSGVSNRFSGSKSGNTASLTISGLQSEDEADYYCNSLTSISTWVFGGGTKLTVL

Row | Substance | Kd
6 | Delta RBD + E406Q (from UniProt P0DTC2) (domain or fragment) | 8.9 nM
7 | Delta RBD + L455S (from UniProt P0DTC2) (domain or fragment) | 9.1 nM
8 | Delta RBD + G446S (from UniProt P0DTC2) (domain or fragment) | 734 nM
9 | Delta RBD + Y453F (from UniProt P0DTC2) (domain or fragment) | 9.8 nM

Target: sotrovimab
Assay: as above

Row | Substance | Kd
10 | BA.1 RBD + E340D (from UniProt P0DTC2) (domain or fragment) | 764 nM
11 | BA.1 RBD + P337R (from UniProt P0DTC2) (domain or fragment) | 753 nM
12 | BA.1 RBD + P337S (from UniProt P0DTC2) (domain or fragment) | 332 nM
13 | BA.1 RBD + E340A (from UniProt P0DTC2) (domain or fragment) | 3420 nM
14 | BA.1 RBD + E340V (from UniProt P0DTC2) (domain or fragment) | 345 nM
15 | BA.1 RBD + E340K (from UniProt P0DTC2) (domain or fragment) | 3440 nM
